In IntAct's records for PubMed 14707132:

Molecular target: pak1_rat Pak1 (UniProt P35465)
Sequence (P35465 whole entry): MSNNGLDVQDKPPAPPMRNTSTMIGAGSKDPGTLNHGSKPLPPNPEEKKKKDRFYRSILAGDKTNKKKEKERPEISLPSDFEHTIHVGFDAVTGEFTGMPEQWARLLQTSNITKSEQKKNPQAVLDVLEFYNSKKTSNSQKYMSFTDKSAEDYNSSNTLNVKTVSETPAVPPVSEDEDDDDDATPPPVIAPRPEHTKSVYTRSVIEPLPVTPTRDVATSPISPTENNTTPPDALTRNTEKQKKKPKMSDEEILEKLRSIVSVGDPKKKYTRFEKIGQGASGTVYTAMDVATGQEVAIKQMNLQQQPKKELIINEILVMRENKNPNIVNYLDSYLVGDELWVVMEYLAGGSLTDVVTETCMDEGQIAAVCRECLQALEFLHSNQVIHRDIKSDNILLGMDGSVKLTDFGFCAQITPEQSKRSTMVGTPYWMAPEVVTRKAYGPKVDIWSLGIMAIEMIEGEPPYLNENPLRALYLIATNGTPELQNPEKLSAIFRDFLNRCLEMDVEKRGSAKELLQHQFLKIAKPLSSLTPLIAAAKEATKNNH

Serine/threonine-protein kinase OSR1 (Homo sapiens), O95747 K46A, sequence (O95747 whole entry K46A): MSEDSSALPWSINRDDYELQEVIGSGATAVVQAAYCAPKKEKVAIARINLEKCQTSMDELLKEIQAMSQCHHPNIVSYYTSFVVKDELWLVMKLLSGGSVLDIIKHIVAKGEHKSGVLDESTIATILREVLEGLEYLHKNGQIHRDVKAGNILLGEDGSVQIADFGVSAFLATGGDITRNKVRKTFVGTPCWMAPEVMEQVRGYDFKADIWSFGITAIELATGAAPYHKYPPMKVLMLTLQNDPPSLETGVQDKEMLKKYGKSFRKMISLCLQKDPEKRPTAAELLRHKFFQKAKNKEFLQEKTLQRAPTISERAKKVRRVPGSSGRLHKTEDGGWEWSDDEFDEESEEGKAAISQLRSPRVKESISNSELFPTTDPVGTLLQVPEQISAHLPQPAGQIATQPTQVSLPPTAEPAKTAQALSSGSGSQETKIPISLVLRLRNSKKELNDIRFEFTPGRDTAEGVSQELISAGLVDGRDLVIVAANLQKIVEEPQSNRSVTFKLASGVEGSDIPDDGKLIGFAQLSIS

Serine/threonine-protein kinase OSR1 (Homo sapiens), O95747 K46A
effect of a mutation on the interaction: decreasing interaction
